Data reported in the supplement of paper PMC10567573.

B1: TRAF3IP2 (parent)
chain: YGHDYPRAAYQQVIQPALPGQPLP
B2: KRT33B (parent)
chain: YQSYFKTIEELQQKILCSKSENAR

Variants of: B1
Experiment: protein stability index of a GFP-peptide fusion (GPS, HEK-293T) (PSI 1-6); higher = more stable
Details: c terminus: a fixed tail appended
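Also: lentivirally expressed fusions sorted by FACS into six bins by GFP to DsRed ratio, PSI derived from sequencing read proportions per bin multiplied by bin number.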

Variant | protein stability index
YGHDRPRAAYQQVIQPALPGQPLP [Y5R] | 3.49
YGHDIPRAAYQQVIQPALPGQPLP [Y5I] | 3.43
YGHDPPRAAYQQVIQPALPGQPLP [Y5P] | 3.99
YGHDYPRAAYQQVIQPALPEQPLP [G20E] | 2.52
YGHDYPRAAYQQVIQPALPIQPLP [G20I] | 1.58
YGHDYPRAAYQQVIQPALPRQPLP [G20R] | 1.52
YGHDYPRAAYQQVIQPALPHQPLP [G20H] | 2.33
YGHDYPRAAYQQVIQPALPKQPLP [G20K] | 2.23
YGHDYPRAAYQQVIQPALPQQPLP [G20Q] | 2.04
YGHDYPRAAYQQVNQPALPGQPLP [I14N] | 1.92
YGHDYPRAAYQQVEQPALPGQPLP [I14E] | 2
YGHDYPRAAYQQVYQPALPGQPLP [I14Y] | 2.52
YGHDYPRAAYQQVWQPALPGQPLP [I14W] | 2.33
YGHDYPRAAYQQVRQPALPGQPLP [I14R] | 1.74
YGHDYPRAAYQQVTQPALPGQPLP [I14T] | 1.86
YYHDYPRAAYQQVIQPALPGQPLP [G2Y] | 2.38
YSHDYPRAAYQQVIQPALPGQPLP [G2S] | 2.56
YPHDYPRAAYQQVIQPALPGQPLP [G2P] | 3.42
YTHDYPRAAYQQVIQPALPGQPLP [G2T] | 2.27
YHHDYPRAAYQQVIQPALPGQPLP [G2H] | 2.46
YIHDYPRAAYQQVIQPALPGQPLP [G2I] | 1.97
YNHDYPRAAYQQVIQPALPGQPLP [G2N] | 2.46
YQHDYPRAAYQQVIQPALPGQPLP [G2Q] | 2.62
YEHDYPRAAYQQVIQPALPGQPLP [G2E] | 3.78

Variants of: B2
Experiment: as above
Details: c terminus: a fixed tail appended

Variant | protein stability index
PQSYFKTIEELQQKILCSKSENAR [Y1P] | 3.84
LQSYFKTIEELQQKILCSKSENAR [Y1L] | 1.89
AQSYFKTIEELQQKILCSKSENAR [Y1A] | 3.35
KQSYFKTIEELQQKILCSKSENAR [Y1K] | 2.88
RQSYFKTIEELQQKILCSKSENAR [Y1R] | 3.15
GQSYFKTIEELQQKILCSKSENAR [Y1G] | 3.08
NQSYFKTIEELQQKILCSKSENAR [Y1N] | 3.72
WQSYFKTIEELQQKILCSKSENAR [Y1W] | 2.98
QQSYFKTIEELQQKILCSKSENAR [Y1Q] | 3.32
VQSYFKTIEELQQKILCSKSENAR [Y1V] | 2.68
TQSYFKTIEELQQKILCSKSENAR [Y1T] | 3.28
SQSYFKTIEELQQKILCSKSENAR [Y1S] | 3.62
HQSYFKTIEELQQKILCSKSENAR [Y1H] | 3.04
EQSYFKTIEELQQKILCSKSENAR [Y1E] | 3.49
CQSYFKTIEELQQKILCSKSENAR [Y1C] | 2.69
DQSYFKTIEELQQKILCSKSENAR [Y1D] | 4.28
FQSYFKTIEELQQKILCSKSENAR [Y1F] | 1.93
MQSYFKTIEELQQKILCSKSENAR [Y1M] | 3.08
IQSYFKTIEELQQKILCSKSENAR [Y1I] | 2.2
YQIYFKTIEELQQKILCSKSENAR [S3I] | 1.67
YQEYFKTIEELQQKILCSKSENAR [S3E] | 2.42
YQDYFKTIEELQQKILCSKSENAR [S3D] | 2.18
YQNYFKTIEELQQKILCSKSENAR [S3N] | 1.79
YQKYFKTIEELQQKILCSKSENAR [S3K] | 1.98

Variant | protein stability index
YQPYFKTIEELQQKILCSKSENAR [S3P] | 2.41
YQAYFKTIEELQQKILCSKSENAR [S3A] | 2.87
YQQYFKTIEELQQKILCSKSENAR [S3Q] | 2.38
YQRYFKTIEELQQKILCSKSENAR [S3R] | 1.25
YQFYFKTIEELQQKILCSKSENAR [S3F] | 1.46
YQWYFKTIEELQQKILCSKSENAR [S3W] | 1.79
YQCYFKTIEELQQKILCSKSENAR [S3C] | 2.11
YQGYFKTIEELQQKILCSKSENAR [S3G] | 1.33
YQYYFKTIEELQQKILCSKSENAR [S3Y] | 2.54
YQLYFKTIEELQQKILCSKSENAR [S3L] | 1.96
YQHYFKTIEELQQKILCSKSENAR [S3H] | 1.59
YQTYFKTIEELQQKILCSKSENAR [S3T] | 1.9
YQMYFKTIEELQQKILCSKSENAR [S3M] | 1.78
YQVYFKTIEELQQKILCSKSENAR [S3V] | 1.6
YQSFFKTIEELQQKILCSKSENAR [Y4F] | 1.85
YQSEFKTIEELQQKILCSKSENAR [Y4E] | 1.88
YQSNFKTIEELQQKILCSKSENAR [Y4N] | 1.85
YQSAFKTIEELQQKILCSKSENAR [Y4A] | 2.1
YQSLFKTIEELQQKILCSKSENAR [Y4L] | 1.92
YQSGFKTIEELQQKILCSKSENAR [Y4G] | 2.08
YQSHFKTIEELQQKILCSKSENAR [Y4H] | 1.81
YQSPFKTIEELQQKILCSKSENAR [Y4P] | 1.73
YQSMFKTIEELQQKILCSKSENAR [Y4M] | 2.11
YQSIFKTIEELQQKILCSKSENAR [Y4I] | 1.96

Variant | protein stability index
YQSKFKTIEELQQKILCSKSENAR [Y4K] | 1.5
YQSDFKTIEELQQKILCSKSENAR [Y4D] | 2.34
YQSCFKTIEELQQKILCSKSENAR [Y4C] | 2.01
YHSYFKTIEELQQKILCSKSENAR [Q2H] | 2.01
YDSYFKTIEELQQKILCSKSENAR [Q2D] | 2.98
YNSYFKTIEELQQKILCSKSENAR [Q2N] | 2.16
YVSYFKTIEELQQKILCSKSENAR [Q2V] | 2.2
YMSYFKTIEELQQKILCSKSENAR [Q2M] | 2.65
YSSYFKTIEELQQKILCSKSENAR [Q2S] | 2.22
YESYFKTIEELQQKILCSKSENAR [Q2E] | 3.37
YKSYFKTIEELQQKILCSKSENAR [Q2K] | 3.17
YLSYFKTIEELQQKILCSKSENAR [Q2L] | 2.46
YGSYFKTIEELQQKILCSKSENAR [Q2G] | 2.14
YPSYFKTIEELQQKILCSKSENAR [Q2P] | 2.77
YYSYFKTIEELQQKILCSKSENAR [Q2Y] | 2.16
YISYFKTIEELQQKILCSKSENAR [Q2I] | 2.63
YWSYFKTIEELQQKILCSKSENAR [Q2W] | 2.15
YFSYFKTIEELQQKILCSKSENAR [Q2F] | 2.5
YTSYFKTIEELQQKILCSKSENAR [Q2T] | 1.76
YRSYFKTIEELQQKILCSKSENAR [Q2R] | 2.63
YASYFKTIEELQQKILCSKSENAR [Q2A] | 2.54
YCSYFKTIEELQQKILCSKSENAR [Q2C] | 1.52
